Numbering of substitutions follows the chain as printed.
Columns and labels:
[1] = molecular target: Tt-S15 (Thermus thermophilus, UniProt Q5SJ76); test: filter binding; 50 mM Tris/acetate pH 7.5, 20 mM Mg-acetate, 270 mM KCl, 5 mM DTT, 0.02% BSA, RNA <1 nM, 30 min at 25 C (thermophile RNAs also at 55 C); conditions: protein: recombinant, label: 5'-32P
[2] = molecular target: T1, Gk-S15 (UniProt Q5L0I3 1-89); test: as above; conditions: protein: recombinant, label: 5'-32P
[3] = molecular target: T2, Ec-S15 (Escherichia coli, UniProt P0ADZ4 1-89); test: as above
[4] = molecular target: Rr-S15 (UniProt A0ABD5LGG5 1-89); test: as above; conditions: protein: recombinant; label: 5'-32P
[5] = molecular target: T2, Ec-S15; test: filter binding; 5'-32P and 3'-pCp label; 50 mM Tris/acetate pH 7.5, 20 mM Mg-acetate, 270 mM KCl, 5 mM DTT, 0.02% BSA, RNA <1 nM, 30 min at 25 C (thermophile RNAs also at 55 C)
[6] = molecular target: T1, Gk-S15; test: filter binding; max fraction bound <20%; 50 mM Tris/acetate pH 7.5, 20 mM Mg-acetate, 270 mM KCl, 5 mM DTT, 0.02% BSA, RNA <1 nM, 30 min at 25 C (thermophile RNAs also at 55 C); conditions: protein: recombinant; label: 5'-32P

Sequence of Tt-S15 (Q5SJ76 2-89): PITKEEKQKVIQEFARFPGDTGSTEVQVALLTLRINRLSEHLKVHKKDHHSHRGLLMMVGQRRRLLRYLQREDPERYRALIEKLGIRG
Sequence of Rr-S15 (A0ABD5LGG5 entry or part of it): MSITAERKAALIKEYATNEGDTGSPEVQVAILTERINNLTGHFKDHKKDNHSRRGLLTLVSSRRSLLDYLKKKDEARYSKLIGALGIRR

B1: Rr-mRNA M1 (structured_RNA)
RNA: GGAUAGGCAGCGCCAGCUUGGGCUUUGCCUAUGCUGCUGAAUGGCCAGAGAAAGACGACAUCCCGGCUCUAGGCGUCCCCGUUUUUCCUUAAAACAAGAAAGGAUCGUACGAUGUCGAUUACUGCAGAGCGCAAAGCC
[1]
  Kd: 8.8 ± 1.8 nM
[2]
  Kd: 11.8 ± 6.9 nM

B2: Gk-mRNA M2 (structured_RNA)
RNA: GGUCAAUGUAUGCGAACCAUUCUCCGGCUAGGCGAGUCACCGACGCCCGCUCGGCAAUCGGGGAUCUAGGACUAGGGAGGUGAACAAGGAUGGCAUUGAA
[1]
  binding result: no binding
[3]
  binding result: no binding
[4]
  binding result: no binding

B3: Ec-mRNA WT (structured_RNA)
RNA: ACUGGGAUCGCUGAAUUAGAGAUCGGCGUCCUUUCAUUCUAUAUACUUUGGAGUUUUAAAAUGUCUCUAAGUACUGAAGCAACAGCU
[5]
  binding result: no binding

B4: Tt-mRNA WT (structured_RNA)
RNA: GGCUUGGCGGGAGACCGCCUCGAGGAGGAAGGGGCUCAAAGCGCCUUCCCGCCUGACGGAGGGAAAACAUGCCCAUCACGAA
[1]; three-way junction
  Kd: 2.11 ± 0.25 nM
[2]; three-way junction
  Kd: 0.35 ± 0.23 nM

B5: Tt-mRNA M1 (structured_RNA)
RNA: B4 RNA with U20A, C21A, G22A, A23U
[6]
  Kd: 76.3 ± 5.7 nM

— PMC4684408, “Co-evolution of Bacterial Ribosomal Protein S15 with Diverse mRNA Regulatory Structures”
